The target in assay [1] is ZIKV-H/PF/2013 sE protein (aa 1-404) (Zika virus (strain H/PF/2013)). Kind of assay: BLI.
Assay [2] deals with DENV3 strain H87 envelope (E) protein on virions (Dengue virus 3 (strain H87)). Kind of assay: ELISA; apparent.
The target in assay [3] is ZIKV strain PF13 envelope (E) protein on virions (Zika virus (strain PF13), UniProt A0A024B7W1). Kind of assay: ELISA; apparent. (In general: An ELISA detects its analyte on a solid surface through an enzyme-linked reagent.)
For assay [4], the target named is DENV4 strain 1-0093 envelope (E) protein on virions (Dengue virus 4 (strain 1-0093)). Kind of assay: ELISA; apparent.
In assay [5] the target is DENV2 strain 16681 envelope (E) protein on virions (Dengue virus 2 (strain 16681)). In words: ELISA; apparent.

Residue numbers refer to the chain shown, from its start. Names may count otherwise.

B1: K^L66A C10 mAb mutant (IgG1) (antibody, V domains shown)
VH: EVQLVESGAEVKKPGASVKVSCKASGYTFTSYAMHWVRQAPGQRLEWMGWINAGNGNTKYSQKFQDRVTITRDTSASTAYMELSSLRSEDTAIYYCARDKVDDYGDYWFPTLWYFDYWGQGTLVTVSS
VL: QSALTQPASVSGSPGQSITISCTGTSSDVGGFNYVSWFQQHPGKAPKLMLYDVTSRPSGVSSRFSGSASGNTASLTISGLQAEDEADYYCSSHTSRGTWVFGGGTKLTVL
Regarding B1, in assay [1], the Kd is 40.3 nM.

B2: C10 intact bivalent IgG1 (human monoclonal antibody EDE1 C10) (antibody, V domains shown)
VH: B1 VH
VL: B1 VL with A68K
Consider B2, for which the Kd in assay [2] was determined as 2.03 nM; in assay [3], 0.41 nM; in assay [4], 1.42 nM; in assay [1], 16.2 nM.

B3: C10 monovalent antigen binding fragment (Fab) (Fab, V domains shown)
VH: B1 VH
VL: B1 VL with A68K
As for B3, the Kd was 38.8 nM in assay [5], 165 nM in assay [2], 1.16 nM in assay [3] and 29.2 nM in assay [4].
